{
  "source": "patent US6623741B1",
  "about": "“Methods and compositions for inhibition of membrane fusion-associated events including RSV transmission” (Trimeris, Inc., priority 2000, dated 2003)",
  "key": {"[1]": {"test": "Circular dichroism spectroscopy (helicity, thermal stability)", "assay_type": "physicochemical", "description": "Circular Dichroism Spectroscopy:\nCircular Dichroism (CD) spectra were obtained using an AVIV Associates 62DS spectrometer equipped with a thermoelectric temperature controller. Spectra were obtained in 0.1, 0.5 and 1.0 cm quartz cells at 1° C. with 0.5 nm steps from 200 to 260 nm, 1.5 nm bandwidth and an averaging time of 4 sec/step. After the cell/buffer blank was subtracted, spectra were smoothed using a third-order least-squares polynomial fit with a conservative (5-10 point) window size to give random residuals. Mixing experiments were performed by comparing the spectrum of the two peptides mixed together in a 0.1 cm path length cell at the desired concentrations (referred to herein as the “experimental” spectrum) to the sum of the individual spectra of the peptides, each solution in a 0.1 cm path length cell (referred to herein as the “model spectrum” for no peptide interaction or “model for no interaction”).\nRaw ellipticity values were converted to mean residue ellipticity using standard methods (Cantor & Schimmel, 1980, Biophysical Chemistry Part II: Techniques for the Study of Biological Structure and Function, W.H. Freeman and Co., New York). Conversions for the mixing experiment spectra were performed using a peptide length corresponding to the average of the two peptides. Thermal stability measurements were performed in 2° C. steps, with 1 minute equilibration times. Spectra were smoothed, converted to mean residue ellipticity, and the corresponding value at 222 nm noted from each spectrum. Percent helicity values were calculated using single value decomposition with a basis set of 33 protein spectra (Johnson & Curtis, 1990, Proteins: Structure, Function and Genetics 7:205-214)."}, "[2]": {"test": "Analytical ultracentrifugation (sedimentation equilibrium)", "assay_type": "physicochemical", "description": "Analytical Ultracentrifugation:\nSedimentation equilibrium experiments were performed on a Beckman Optima XL-A analytical ultracentrifuge at 4° C. Six-channel cells (12 mm optical path length) were used with an An-60 Ti rotor operated at 13,500, 16,000, 17,000, 20,000, 21,000, 24,000, 25,000, 27,500, 30,000 and 35,000 rpm. The cell radii were scanned using 0.001 cm steps with 10 averages/scan. Data were analyzed using Beckman XLA data analysis software (version 3.01 for Windows) and Beckman-Origin software (version 3.78 for Windows). […] The partial specific volumes were held constant for all models considered.\nSingle data files were normalized to 270 nm absorbance values using Beer's Law. The data obtained with solutions containing the DP107-like peptides were then analyzed using a single ideal species model to determine a weight-averaged molecular weight (Mw). Diagnostic plots of Mw/Mw0 vs. rpm/rpm0 and Mw vs. radial concentration were used to test for sample homogeneity as described, e.g., by McRorie & Voelker, 1993, Self-Associating Systems in the Analytical Ultracentrifuge, Beckman Instruments, Inc., Palo Alto; and Yphantis et al., 1978, in Physical Aspects of Protein Interactions: Proceedings of the Symposium on Protein Interactions, American Chemical Society Meeting, Catsimpoolas, Ed., pp. 275-303, Elsevier, Miami Beach, Fla. When systematic residuals or a Mw higher than the monomer molecular weight indicated the presence of self-association, associative models such as monomer/trimer, monomer/tetramer and monomer/dimer/tetrarner were investigated. The suitability of a particular model (i.e., the goodness of fit) was judged by the trends observed in the residuals (Johnson & Straume, 1994, in Modern Analytical Ultracentrifugation, Schuster et al., eds., pp. 37-65, Birkhauser, Boston). Using the associative model which produced random residuals when fitting individual data files, a simultaneous, global, weighted fit of multiple data files (up to nine files with different concentrations and speeds) was performed to determine the association constant and 95% confidence intervals. To convert the resulting association constant from absorbance units to concentration units, it was assumed that the absorbance of the n-mer is n times that of the monomer.\nThe data obtained with DP107-like/DP178-like peptide mixtures were first analyzed with a single ideal species model. When a systematic trend in residuals coupled with the Mw not equal to a precise multimer of HR1+HR2 were obtained, and alternate fitting scheme was explored. For this approach, it was assumed that the solution contained fully associated HR1-HR2 complexes and unassociated DP107-like and DP178-like peptides. The mixtures were analyzed with a two-ideal species model, choosing one species to have a molecular weight of either 28,269 Da (corresponding to three DP107-like plus three DP178-like peptides) or […] (corresponding to four DP107-like plus four DP178-like peptides)."}, "[3]": {"tested_on": "HIV-1 (HIV-1LAI, HIV-1MN, HIV-1RF, HIV-1SF2)", "assay_type": "cell-based", "details": "lowest concentration tested, FIG. 4B", "description": "Approximately 7×10^4 Molt cells were incubated with 1×10^4 CEM cells chronically infected with the HIV-1LAI virus in 96-well plates (one-half area cluster plates; Costar, Cambridge, Mass.) in a final volume of 100 μl culture medium as previously described (Matthews, T. J. et al., 1987, Proc. Natl. Acad. Sci. USA 84: 5424-5428). Peptide inhibitors were added in a volume of 10 μl and the cell mixtures were incubated for 24 hr. at 37° C. At that time, multinucleated giant cells were estimated by microscopic examination at a 40× magnification which allowed visualization of the entire well in a single field.\nThe initial screen for antiviral activity assayed peptides' ability to block syncytium formation induced by overnight co-cultivation of uninfected Molt 4 cells with chronically HIV-1 infected CEM cells. […] In the first of these experiments, serial DP178 (SEQ ID NO:15) peptide concentrations between 10 μg/ml and 12.5 ng/ml were tested for blockade of the cell fusion process. For these experiments, CEM cells chronically infected with either HIV-1LAI, HIV-1MN, HIV-1RF, or HIV-1SF2 virus were cocultivated overnight with uninfected Molt 4 cells.\nThe next series of experiments involved the preparation and testing of a DP178 (SEQ ID NO:15) homolog for its ability to inhibit HIV-1-induced syncytia formation.\nThe next series of experiments involved a comparison of DP178 (SEQ ID NO:15) HIV-1 and HIV-2 inhibitory activity."}, "M41Δ178 fusion protein": {"tested_on": "M41Δ178 fusion protein", "test": "T83 ELARA (Biot-T20) IC50 Conc. (nM)", "from_the_text": "Table printed on a drawing sheet, FIG.24A\nHead of the field: T83 ELARA (Biot-T20) IC50 Conc. (nM)\nThe patent's description of the figure: FIGS. 24A-B: Circular dichroism, cell fusion and competitive inhibition data for alanine walk experiments for the peptide T20, which is also known as DP178.\nFirst copying reader's note: The table breaks off at the bottom of the sheet and continues on FIG. 24B; substituted alanine residues are printed in bold, and the T1342 FP column is empty on this sheet."}},
  "data": [
    {"substance": "Ac-AVSKVLHLEGEVNKIKSALLSTNKAVVSLSNGVSVLTSKVLDLKNYIDKQL-NH2 (N-terminus and C-terminus assumed) [Peptide T1584]", "values": [
      {"measurement": "IC50", "setting": "RSV", "value": 0.23, "unit": "µg/mL"},
      {"measurement": "%-Helicity", "setting": "[1]; 35 μM peptide, PBS pH 7", "value": 90, "unit": "%"},
      {"measurement": "Tm (midpoint of melting transition)", "setting": "[1]; 35 μM peptide, PBS pH 7", "value": 53, "unit": "°C"},
      {"measurement": "N-mer (weight-averaged molecular weight divided by monomer molecular weight)", "setting": "[2]; 35 μM", "value": 2.1}
    ]},
    {"substance": "YTNTIYTLLEESQNQQEKNEQELLELDKWASLWNWF [DP-185]", "values": [
      {"measurement": "concentration exhibiting inhibitory activity on HIV-1-induced syncytia formation", "setting": "[3]", "value": "≤ 312.5", "unit": "ng/mL"}
    ]},
    {"substance": "T1590: RSV HR1 (DP107-like) peptide of FIG. 28, shorter than T1581 (Ac-VLHLEGEVNKIKSALLSTNKAVVSLSNGVSVLTSKVLDLKNYI-NH2) [Peptide T1590]", "values": [
      {"measurement": "%-Helicity", "setting": "[1]; 35 μM peptide, PBS pH 7", "value": 10, "unit": "%"},
      {"measurement": "Tm (midpoint of melting transition)", "setting": "[1]; 35 μM peptide, PBS pH 7", "value": "<10", "unit": "°C"}
    ]},
    {"substance": "T1582: RSV HR1 (DP107-like) peptide of FIG. 28, shorter than T1581 (Ac-VLHLEGEVNKIKSALLSTNKAVVSLSNGVSVLTSKVLDLKNYIDK-NH2) [Peptide T1582]", "values": [
      {"measurement": "%-Helicity", "setting": "[1]; 35 μM peptide, PBS pH 7", "value": 49, "unit": "%"},
      {"measurement": "Tm (midpoint of melting transition)", "setting": "[1]; 35 μM peptide, PBS pH 7", "value": 22, "unit": "°C"},
      {"measurement": "N-mer (weight-averaged molecular weight divided by monomer molecular weight)", "setting": "[2]; 35 μM", "value": 1.5}
    ]},
    {"substance": "T871: T20 with three consecutive residues changed to three alanine residues (YTSLIHSLIEESQNQQEKNEQELLAAAKWASLWNWF) [Peptide T871]", "values": [
      {"measurement": "IC50", "setting": "M41Δ178 fusion protein", "value": 1160, "unit": "nM"}
    ]},
    {"substance": "Ac-YTSLIHSLIEESQNQQEKNEQELLELDKWAAAANWF-NH2 [T869]", "values": [
      {"measurement": "IC50", "setting": "M41Δ178 fusion protein", "value": 57, "unit": "nM"}
    ]},
    {"substance": "Ac-YTSLIHSLIEESQNQQEKNEQAAAELDKWASLWNWF-NH2 [T872]", "values": [
      {"measurement": "IC50", "setting": "M41Δ178 fusion protein", "value": 66, "unit": "nM"}
    ]},
    {"substance": "Ac-SKVLHLEGEVNKIKSALLSTNKAVVSLSNGVSVLTSKVLDLKNYIDKQ-NH2 [Peptide T1583]", "values": [
      {"measurement": "IC50", "setting": "RSV", "value": 1.09, "unit": "µg/mL"}
    ]},
    {"substance": "Ac-VLHLEGEVNKIKSALLSTNKAVVSLSNGVSVLTSKVLDLKNYIDKQ-NH2 (N-terminus and C-terminus assumed) [Peptide T1581]", "values": [
      {"measurement": "IC50", "setting": "RSV", "value": 3.36, "unit": "µg/mL"},
      {"measurement": "%-Helicity", "setting": "[1]; 35 μM peptide, PBS pH 7", "value": 69, "unit": "%"},
      {"measurement": "Tm (midpoint of melting transition)", "setting": "[1]; 35 μM peptide, PBS pH 7", "value": 31, "unit": "°C"},
      {"measurement": "N-mer (weight-averaged molecular weight divided by monomer molecular weight)", "setting": "[2]; 35 μM", "value": 1.8}
    ]},
    {"substance": "AVSKVLHLEGEVNKIKSALLSTNKAVVSLSNGVSVLTSKVLDLKNYIDKQ (Ac-AVSKVLHLEGEVNKIKSALLSTNKAVVSLSNGVSVLTSKVLDLKNYIDKQ-NH2) [Peptide T1772, RSV DP107-like peptide, residues 153-202 of the RSV F-protein]", "values": [
      {"measurement": "%-Helicity", "setting": "[1]; 1 μM T1772", "value": 67, "unit": "%"},
      {"measurement": "Tm", "setting": "[1]; 1 μM T1772", "value": 30, "unit": "°C"},
      {"measurement": "%-Helicity", "setting": "[1]; 10 μM T1772", "value": 80, "unit": "%"},
      {"measurement": "Tm", "setting": "[1]; 10 μM T1772", "value": 32, "unit": "°C"},
      {"measurement": "%-Helicity", "setting": "[1]; 35 μM peptide, PBS pH 7", "value": 83, "unit": "%"},
      {"measurement": "Tm (midpoint of melting transition)", "setting": "[1]; 35 μM peptide, PBS pH 7", "value": 42, "unit": "°C"},
      {"measurement": "%-Helicity", "setting": "[1]; 50 μM T1772", "value": 84, "unit": "%"},
      {"measurement": "Tm", "setting": "[1]; 50 μM T1772", "value": 42, "unit": "°C"},
      {"measurement": "%-Helicity", "setting": "[1]; 100 μM T1772", "value": 90, "unit": "%"},
      {"measurement": "Tm", "setting": "[1]; 100 μM T1772", "value": 46, "unit": "°C"},
      {"measurement": "oligomerization state in solution (in words)", "setting": "[2]", "value": "trimeric self-association"},
      {"measurement": "N-mer (weight-averaged molecular weight divided by monomer molecular weight)", "setting": "[2]; 25 μM determination", "value": 2.4},
      {"measurement": "Mw, single ideal species model, single data set", "setting": "[2]; 100 μM, 24,000 rpm", "value": "12,925 Da"},
      {"measurement": "average Mw relative to the monomer molecular weight", "setting": "[2]; average over concentrations", "value": 2.4, "unit": "times"}
    ]},
    {"substance": "Ac-SGVAVSKVLHLEGEVNKIKSALLSTNKAVVSLSNGVSVLTSKVLDLKNYIDKQL-NH2 (N-terminus and C-terminus assumed) [Peptide T1623]", "values": [
      {"measurement": "IC50", "setting": "RSV", "value": 0.80, "unit": "µg/mL"},
      {"measurement": "%-Helicity", "setting": "[1]; 35 μM peptide, PBS pH 7", "value": 88, "unit": "%"},
      {"measurement": "Tm (midpoint of melting transition)", "setting": "[1]; 35 μM peptide, PBS pH 7", "value": 55, "unit": "°C"},
      {"measurement": "N-mer (weight-averaged molecular weight divided by monomer molecular weight)", "setting": "[2]; 35 μM", "value": 2.2}
    ]},
    {"substance": "T876: T20 with three consecutive residues changed to three alanine residues (YTSLIHSLIAAAQNQQEKNEQELLELDKWASLWNWF) [Peptide T876]", "values": [
      {"measurement": "IC50", "setting": "M41Δ178 fusion protein", "value": 29, "unit": "nM"}
    ]}
  ]
}
